Results taken from PMC10418658, “Biochemical and Structural Insights into a Thiamine Diphosphate-Dependent α-Ketoglutarate Decarboxylase from Cyanobacterium Microcystis aeruginosa NIES-843” (International Journal of Molecular Sciences, 2023).

Assays:
Assay in all cases: purified protein
[1] = substrate: Cc1ncc(C[n+]2csc(CCO[P@](=O)(O)OP(=O)(O)O)c2C)c(N)n1; conditions: half-saturation of activity, varied: cofactor
[2] = substrate: O=C(O)CCC(=O)C(=O)O; assay type: biochemical, Microcystis aeruginosa; conditions: 1 mM ThDP, 2 mM Mg2+, 100 mM HEPES pH 7.0, 10% glycerol, 25 °C
[3] = substrate: Cc1ncc(C[n+]2csc(CCO[P@](=O)(O)OP(=O)(O)O)c2C)c(N)n1; assay type: biochemical, Microcystis aeruginosa; conditions: 10 mM α-ketoglutarate, 2 mM Mg2+, 100 mM HEPES pH 7.0, 10% glycerol, 25 °C, varied: cofactor
[4] = substrate: O=C(O)CCC(=O)C(=O)O; assay type: biochemical, Synechocystis sp. PCC 6803; conditions: saturated ThDP and Mg2+; purified from coexpression with pTf16

B1: MaKGD (Microcystis aeruginosa NIES-843) (protein)
chain: MGELNTAELLVKCLENEGVEYIFGLPGEENLDVLEALKNSSIKFITTRHEQGAAFMADVYGRLTGKAGVCLSTLGPGATNLMTGVADANLDGAPLVAITGQVGTDRMHIESHQYLDLVAMFAPVTKWNKQIVRPGITPEVVRRAFKTAQSEKPGAVHIDLPENIAAMAADGHPLPLDSQEKVYASYRTLNMAAAVISKAKNPLILAGNGAIRANASEALTEFATALNIPVANTFMGKGVIPYTHPLALWAVGLQQRDLISCAFERSDLIIAVGYDLIEYSPKKWNPDGKLPIIHIGMTPAEIDSSYAPVVEVVGDITDSLIDILKRADRQNKPTPVTAGLKTEIRADYETYANDTGFPIKPQKLIYDLRQVMGPEDIAICDVGAHKMWMARQYHSDCPNTCIISNGFAAMGIAIPGAIAAKLVYPNKRIVAVTGDGGFMMNCQELETALRVGTPFVTLIFNDGGYGLIEWKQLNYFGTSSFIKFGNPDFVKFAESMGLKGYRVESTQDLIPTLEEAFRQEVPTVIDVPVDYGENLRLSQKSGDLSCQIWE
notes: full length, pET28a (NdeI/XhoI), E. coli BL21(DE3) with chaperone plasmid pTf16, imidazole-eluted; codon-optimised gene
K0.5 ([1]; 10 mM α-ketoglutarate, 2 mM Mg2+, 100 mM HEPES pH 7.0, 10% glycerol, 25 °C, pH 7.0, 25.0 °C): 0.0056 ± 0.0007 mM
Km [2]: 870 ± 230 µM
kcat [2]: 7.8 ± 0.5 s⁻¹
kcat/Km [2]: 8970 M⁻¹ s⁻¹

B2: MaKGD (Microcystis aeruginosa NIES-843; M410A) (protein)
chain: MGELNTAELLVKCLENEGVEYIFGLPGEENLDVLEALKNSSIKFITTRHEQGAAFMADVYGRLTGKAGVCLSTLGPGATNLMTGVADANLDGAPLVAITGQVGTDRMHIESHQYLDLVAMFAPVTKWNKQIVRPGITPEVVRRAFKTAQSEKPGAVHIDLPENIAAMAADGHPLPLDSQEKVYASYRTLNMAAAVISKAKNPLILAGNGAIRANASEALTEFATALNIPVANTFMGKGVIPYTHPLALWAVGLQQRDLISCAFERSDLIIAVGYDLIEYSPKKWNPDGKLPIIHIGMTPAEIDSSYAPVVEVVGDITDSLIDILKRADRQNKPTPVTAGLKTEIRADYETYANDTGFPIKPQKLIYDLRQVMGPEDIAICDVGAHKMWMARQYHSDCPNTCIISNGFAAAGIAIPGAIAAKLVYPNKRIVAVTGDGGFMMNCQELETALRVGTPFVTLIFNDGGYGLIEWKQLNYFGTSSFIKFGNPDFVKFAESMGLKGYRVESTQDLIPTLEEAFRQEVPTVIDVPVDYGENLRLSQKSGDLSCQIWE
notes: as for B1
K0.5 [3]: 0.046 ± 0.010 mM

B3: MaKGD (Microcystis aeruginosa NIES-843; D435E) (protein)
chain: MGELNTAELLVKCLENEGVEYIFGLPGEENLDVLEALKNSSIKFITTRHEQGAAFMADVYGRLTGKAGVCLSTLGPGATNLMTGVADANLDGAPLVAITGQVGTDRMHIESHQYLDLVAMFAPVTKWNKQIVRPGITPEVVRRAFKTAQSEKPGAVHIDLPENIAAMAADGHPLPLDSQEKVYASYRTLNMAAAVISKAKNPLILAGNGAIRANASEALTEFATALNIPVANTFMGKGVIPYTHPLALWAVGLQQRDLISCAFERSDLIIAVGYDLIEYSPKKWNPDGKLPIIHIGMTPAEIDSSYAPVVEVVGDITDSLIDILKRADRQNKPTPVTAGLKTEIRADYETYANDTGFPIKPQKLIYDLRQVMGPEDIAICDVGAHKMWMARQYHSDCPNTCIISNGFAAMGIAIPGAIAAKLVYPNKRIVAVTGEGGFMMNCQELETALRVGTPFVTLIFNDGGYGLIEWKQLNYFGTSSFIKFGNPDFVKFAESMGLKGYRVESTQDLIPTLEEAFRQEVPTVIDVPVDYGENLRLSQKSGDLSCQIWE
notes: as for B1
K0.5 [3]: 0.041 ± 0.003 mM

B4: MaKGD (Microcystis aeruginosa NIES-843; L467A) (protein)
chain: MGELNTAELLVKCLENEGVEYIFGLPGEENLDVLEALKNSSIKFITTRHEQGAAFMADVYGRLTGKAGVCLSTLGPGATNLMTGVADANLDGAPLVAITGQVGTDRMHIESHQYLDLVAMFAPVTKWNKQIVRPGITPEVVRRAFKTAQSEKPGAVHIDLPENIAAMAADGHPLPLDSQEKVYASYRTLNMAAAVISKAKNPLILAGNGAIRANASEALTEFATALNIPVANTFMGKGVIPYTHPLALWAVGLQQRDLISCAFERSDLIIAVGYDLIEYSPKKWNPDGKLPIIHIGMTPAEIDSSYAPVVEVVGDITDSLIDILKRADRQNKPTPVTAGLKTEIRADYETYANDTGFPIKPQKLIYDLRQVMGPEDIAICDVGAHKMWMARQYHSDCPNTCIISNGFAAMGIAIPGAIAAKLVYPNKRIVAVTGDGGFMMNCQELETALRVGTPFVTLIFNDGGYGAIEWKQLNYFGTSSFIKFGNPDFVKFAESMGLKGYRVESTQDLIPTLEEAFRQEVPTVIDVPVDYGENLRLSQKSGDLSCQIWE
notes: as for B1
K0.5 [3]: 0.026 ± 0.004 mM
Km [2]: 1220 ± 510 µM
kcat [2]: 2.7 ± 0.32 s⁻¹

B5: MaKGD (Microcystis aeruginosa NIES-843; Y465A) (protein)
chain: MGELNTAELLVKCLENEGVEYIFGLPGEENLDVLEALKNSSIKFITTRHEQGAAFMADVYGRLTGKAGVCLSTLGPGATNLMTGVADANLDGAPLVAITGQVGTDRMHIESHQYLDLVAMFAPVTKWNKQIVRPGITPEVVRRAFKTAQSEKPGAVHIDLPENIAAMAADGHPLPLDSQEKVYASYRTLNMAAAVISKAKNPLILAGNGAIRANASEALTEFATALNIPVANTFMGKGVIPYTHPLALWAVGLQQRDLISCAFERSDLIIAVGYDLIEYSPKKWNPDGKLPIIHIGMTPAEIDSSYAPVVEVVGDITDSLIDILKRADRQNKPTPVTAGLKTEIRADYETYANDTGFPIKPQKLIYDLRQVMGPEDIAICDVGAHKMWMARQYHSDCPNTCIISNGFAAMGIAIPGAIAAKLVYPNKRIVAVTGDGGFMMNCQELETALRVGTPFVTLIFNDGGAGLIEWKQLNYFGTSSFIKFGNPDFVKFAESMGLKGYRVESTQDLIPTLEEAFRQEVPTVIDVPVDYGENLRLSQKSGDLSCQIWE
notes: as for B1
K0.5 [3]: 0.090 ± 0.021 mM
Km [2]: 1480 ± 270 µM
kcat [2]: 1.23 ± 0.25 s⁻¹

B6: MaKGD (Microcystis aeruginosa NIES-843; D462N) (protein)
chain: MGELNTAELLVKCLENEGVEYIFGLPGEENLDVLEALKNSSIKFITTRHEQGAAFMADVYGRLTGKAGVCLSTLGPGATNLMTGVADANLDGAPLVAITGQVGTDRMHIESHQYLDLVAMFAPVTKWNKQIVRPGITPEVVRRAFKTAQSEKPGAVHIDLPENIAAMAADGHPLPLDSQEKVYASYRTLNMAAAVISKAKNPLILAGNGAIRANASEALTEFATALNIPVANTFMGKGVIPYTHPLALWAVGLQQRDLISCAFERSDLIIAVGYDLIEYSPKKWNPDGKLPIIHIGMTPAEIDSSYAPVVEVVGDITDSLIDILKRADRQNKPTPVTAGLKTEIRADYETYANDTGFPIKPQKLIYDLRQVMGPEDIAICDVGAHKMWMARQYHSDCPNTCIISNGFAAMGIAIPGAIAAKLVYPNKRIVAVTGDGGFMMNCQELETALRVGTPFVTLIFNNGGYGLIEWKQLNYFGTSSFIKFGNPDFVKFAESMGLKGYRVESTQDLIPTLEEAFRQEVPTVIDVPVDYGENLRLSQKSGDLSCQIWE
notes: as for B1
K0.5 [3]: 0.008 ± 0.001 mM
Km [2]: 3920 ± 450 µM
kcat [2]: 1.5 ± 0.36 s⁻¹

B7: MaKGD (Microcystis aeruginosa NIES-843; D462E) (protein)
chain: MGELNTAELLVKCLENEGVEYIFGLPGEENLDVLEALKNSSIKFITTRHEQGAAFMADVYGRLTGKAGVCLSTLGPGATNLMTGVADANLDGAPLVAITGQVGTDRMHIESHQYLDLVAMFAPVTKWNKQIVRPGITPEVVRRAFKTAQSEKPGAVHIDLPENIAAMAADGHPLPLDSQEKVYASYRTLNMAAAVISKAKNPLILAGNGAIRANASEALTEFATALNIPVANTFMGKGVIPYTHPLALWAVGLQQRDLISCAFERSDLIIAVGYDLIEYSPKKWNPDGKLPIIHIGMTPAEIDSSYAPVVEVVGDITDSLIDILKRADRQNKPTPVTAGLKTEIRADYETYANDTGFPIKPQKLIYDLRQVMGPEDIAICDVGAHKMWMARQYHSDCPNTCIISNGFAAMGIAIPGAIAAKLVYPNKRIVAVTGDGGFMMNCQELETALRVGTPFVTLIFNEGGYGLIEWKQLNYFGTSSFIKFGNPDFVKFAESMGLKGYRVESTQDLIPTLEEAFRQEVPTVIDVPVDYGENLRLSQKSGDLSCQIWE
notes: as for B1
K0.5 [3]: 0.761 ± 0.143 mM
Km [2]: 2380 ± 630 µM
kcat [2]: 9 ± 0.47 s⁻¹

B8: MiKGD (Microcystis aeruginosa NIES-4325) (protein)
chain: MGELNTAELLVKCLENEGVEYIFGLPGEENLDVLEALKNSSIKFITTRHEQGAAFMADVYGRLTGKAGVCLSTLGPGATNLMTGVADANLDGAPLVAITGQVGTDRMHIESHQYLDLVAMFAPVTKWNKQIVRPGITPEVVRRAFKTAQSEKPGAVHIDLPENIAAMPADGHPLPLDSQEKVYASYRTLNMAAAVISKAKNPLILAGNGAIRANASEALTEFATALNIPVANTFMGKGVIPYTHPLALWAVGLQQRDLISCAFDRSDLIIAVGYDLIEYSPKKWNPEGKLPIIHIGMTPAEIDSSYAPVVEVVGDITDSLIDILKRADRQNKPTPVTAGLKTEIRADYETYANDTGFPIKPQKLIYDLRQVMGPEDIVISDVGAHKMWMARQYHSDCPNTCIISNGFAAMGIAIPGAIAAKLVHPDKRVVAVTGDGGFMMNCQELETALRVGTPFVTLIFNDGGYGLIEWKQFNYFGTSSFIKFGNPDFVKFAESMGLKGYRVESAQDLIPILEEAFQQEVPTVIDVPVDYGENLRLSQKSGDLSCQIWE
notes: full length, pET28a (NdeI/XhoI), E. coli BL21(DE3) with chaperone plasmid pTf16; codon-optimised gene
K0.5 ([3]; half-saturation of activity): 0.026 ± 0.006 mM
Km [2]: 4470 ± 630 µM
kcat [2]: 4.33 ± 0.37 s⁻¹
kcat/Km [2]: 970 M⁻¹ s⁻¹

B9: StKGD (Synechocystis sp. PCC 6803 substr. Kazusa) (protein)
chain: MGQMNTADLLVQCLENEDVEYIFGVPGEENLHILEALKNSPIRFITTRHEQGAAFMADVYGRLTGKAGVCLSTLGPGATNLMTGVADANLDGAPLVAITGQVGTDRMHIESHQYLDLVAMFDPVTKWTRQIVRPSITPEVVRKAFKLAQSEKPGATHIDLPENIAAMPVDGKPLRRDSREKVYAAFRTLGTAANAISKAKNPIILAGNGTIRAEASEALTEFATSLNIPVANTFMGKGTMPYTHPLSLWTVGLQQRDHITCAFEKSDLVIAVGYDLIEYSPKKWNPTGDLPIIHIGATPAEIDSSYIPQVEVVGDITDSLMDLLKRCDRQGKPTPYGASLRAEIRAEYECYANDTGFPVKPQKIIYDLRQVMGPDDVVISDVGAHKMWMARHYHCDSPNTCLISNGFAAMGIAIPGAIAAKLVYPERNIVAVTGDGGFMMNCQELETAMRVGTPFVTLIFNDNGYGLIEWKQINQFGESSFIKFGNPDFVKFAESMGLKGYRVEAAADLIPILKEALAQPVPTVIDCPVDYRENIRFSQKAGELACEIWE
notes: recombinant, coexpressed with chaperone plasmid pTf16 and purified again in this study
K0.5 ([1]; purified from coexpression with pTf16): 0.063 ± 0.019 mM
Km [4]: 3830 ± 750 µM
kcat [4]: 3.07 ± 0.42 s⁻¹
kcat/Km [4]: 800 M⁻¹ s⁻¹
